Experimental data published in patent publication US20230066984A1, “New Carbon Glycoside Glycosyltransferase and Use Thereof” (CAS Center for Excellence in Molecular Plant Sciences, priority 2020, published 2023).
Substitutions are numbered along the chain they refer to.

B1: TaCGT1-B: C-glycosyltransferase from wheat, SEQ ID NO: 9 (protein, listed as Triticum aestivum)
chain: MPTSGDGSGALPHVVLLPSAGMGHLVPFSRLAVSFSSSDHGCGVSVVTVLPTVSSAESAHLDALFGACPAVRRLDFHLARFDASEFPGADPFFLRFEAMRRSAPLLGPLLAGAGASALVTDIALASVVIPVARELRLPCYVLFTASAAMLSLCVHFPAYLDANAGGPVGDVDIPGVYRVPKASIPQALHHPEHLFTRQFVANGRELAKSDGLLVNSFDEFEPEAISALRDGSVAAGFPPVFSVGPLAPVSFSAGEPPENQADYMRWLEAQPTRSVVYVSFGSRKAISKDQLKELAVGLEASGHRFLWVVKSTVVDREDEAELSELLGEGFLERVHGRGMVTKGWVEQEEVLKQESIGLFISHCGWNSVTEAAANGLPVLAWPRFGDQRVNAGVVARSGLGVWEERWSWEGEEGVVSGENIAEKVKAVMADETVRNKAVSVQDAAAKAVADGGTSYRSLAQFVQRCRDLSVSK
B2: Phyllostachys edulis (moso bamboo) C-glycosyltransferase PhCGT1, SEQ ID NO: 1 (Phyllostachys edulis) (protein)
chain: MPTSGGRTGDRPHVILLPSAGMGHLVPFSRLAVALSSGHGCDVSVVAVLPTVSAAESRHLQGLLDASPAVRRLDLHLAPFDESEFPGADPFFLRFEAMRRSAPLLGPLLADTGASALVTDIALASVVIPVAKEIHLPCYVLFTASAAMLSFCAYFPTYLDTNAGRVVGDVDIPGVYRIPKASIPQALHDPNHLFTRQFVANGQDLAKADGVLVNTFDALELEAVTALRQGSVAAGFPPVFSVGPLVTVNLPAGEAAKESGNDYMYWLDAQPAQSVVYVSFGSRKAISRDQVRELAIGLEASGQPFLWVVKSTVVDRDDSAELSELLGEGFLERVQGQGFVTKAWVEQEEVLKHESIGLFISHCGWNSVTEAAASGVPVLAWPRFGDQRVNAGVVARGGLGVWVERWSWEGEEDVVSGEEIAEKVKAVMADETVRKKAASVGEAAVKEFADGGTSYRSLTEFVRRCRDLAVLD
notes: pET28a (pCZ86), E. coli BL21(DE3) in fermentation; A1 assay uses crude enzyme supernatant
B3: Phyllostachys glauca (henon bamboo) C-glycosyltransferase PgCGT1, SEQ ID NO: 2 (Phyllostachys glauca) (protein)
chain: B2 chain with G6S, D10G, Q273R, D289N, I296V, P304R, G327D, Q337R, F339L, D413G
notes: A1 assay uses crude enzyme supernatant
B4: TaCGT1-A: C-glycosyltransferase from wheat, SEQ ID NO: 8 (protein, listed as Triticum aestivum)
chain: MPTSGDGPTSQPHVVLLPSAGMGHLVPFSRLAVALSSAHGCDVSLVTVLPTVSSAESSHLEALFGAFPAVRRLEFHLADFDASEFPNADPFFLRFEAMRRSAPLLLGPLLARASATALVTDIALSSVVIPVAKQLRLPCYVLFTASAAMLSLCVHFPAYLDANGNGLVGDVDIPGVYQIPKASVPQALHDPKHLFTRQFVANGRELAKSDGVLVNSFDAFEPEAIAALREGAVSAAGFFPPVFSVGPLAPVSFPAGNNNRADYIQWLEAQPARSVVYVSFGSRKAVARDQLRELAAGLEASGHRFLWVVKSTVVDRDDDADLGELLGEGFLERVQGRGMVTKGWVEQEDVLKQESVGLFISHCGWNSVTEAAAGGLPVLAWPRFGDQRVNAGVVARSGLGVWVDSWSWEGEEGVVSGESIAEKVKAVMGDEIARNKAVSVRDAAAKAVADGGTSYRNLARFAQRCRDGRVRE
B5: SbCGT2: C-glycosyltransferase from Sorghum, SEQ ID NO: 7 (protein)
chain: MAPSAMPASGDHTGATPHVVLLPSAGMGHLVPFARLAVALSEGHGCDVSFAAVLPTVSSAESRHLRALFAAAPAVRRLDFRLAPFDESQFPGADPFFLRFEALRRSAPLLGPLLDAAQASALVTDIVLASVVLPVAKARGVPCYVLFTSSAAMLSLCAYFPAHLDANAAAGGGRLGVGDVDIPGVYRIPKSSVPQALHDPKHLFTQQFVANGRGLVAADGILVNTFDAFEPDAITALRQGSVVSDFPPVFAVGPLQPVRFQVAEKPAHYMRWLSAQPARSVVYVSFGSRKAISTDQLRELAAGLEASGQRFLWVVKSTVVDRDDAADLADLLGDGFLERVQGRAFVTKGWVEQEEILQHGSVGLFISHCGWNSVTEAAAFGVPVLAWPRFGDQRVNAAVVARGGLGAWEERWTWDGEKGLVTGEEVAEKINAVVGNDVVARKAARVGDAAAAAAGKGGTSYQSLADFVGRCRDAGW
modifications: Sorghum bicolor

Assays:
[1] = In vitro functional identification of C-glycosyltransferases by HPLC, phloretin as glycosyl receptor; format: biochemical; conditions: 0.1 mM phloretin, 0.3 mM UDP glucose, crude enzyme, 37° C., 2 h, HPLC (FIG. 1A)
Description: The recombinant plasmid was transformed into competent cells of Escherichia coli BL21 (DE3), and cultured overnight at 37° C. in solid LB medium (kanamycin 50 μg/mL). Single colony was transferred to a 2 mL LB liquid medium (containing 50 μg/ml kanamycin) and incubated overnight. The bacterial fluid was transferred to a new 100 ml LB liquid medium with antibiotics and incubated at 37° C. and 250 r/min until OD600 reached 0.5-0.6. The culture was cooled down to 16° C. in a water bath. Then inducer IPTG was added at a final concentration of 0.1 mM. The mixture was cultured at 16° C. for low temperature induction and 180 r/min for 20 h. The BL21(DE3) recombinant strain carrying the pET28a empty plasmid was used as a blank control, and the culture operation was the same as above. The bacteria were harvested by centrifugation (6000 r/min, 5 min), re-suspended in 1 mL of lysis buffer Buffer A (20 mM Tris-HCl, pH 8.0; 100 mM NaCl), and DNase was added to a final concentration of 5 μg/mL, Mg^2+ to a final concentration of 2 mM; protease inhibitor PMSF to a final concentration of 1 mM; the bacteria were incubated on ice for 30 min and then sonicated; refrigerated centrifugation (10,000 rpm, 30 min, 4° C.), filtered through a 0.2 µm filter membrane to obtain the supernatant crude enzyme solution, and added 20% glycerol for cryopreservation (−20° C.).
(§1) The in vitro enzyme catalytic assay system is 100 μL. The reaction system includes: 0.1 mM glycosyl receptor (phloretin or 2-hydroxynaringenin), 0.3 mM UDP glucose, 25 μL supernatant crude enzyme solution, and Buffer A is used to make up the volume to 100 μL, and react at 37° C. for 2 h. After the reaction was completed, an equal volume of methanol was added to terminate the reaction, and HPLC was used for product analysis. HPLC detection conditions: chromatographic column: reverse phase C18 column [SilGreen ODS column (ø 4.6×250 mm)], detection wavelength 280 nm; mobile phase: acetonitrile (0.1% formic acid)-water (0.1% formic acid) mixture gradient elution, with increased ratio from 5:95 to 100:0 within 0 to 20 min, and the flow rate was 1 mL/min.

[2] = substrate: O=C1C[C@@](O)(c2ccc(O)cc2)Oc2cc(O)cc(O)c21; assay: in vitro kinetic parameters of C-glycosyltransferase PhCGT1 with 2-hydroxynaringenin (FIG. 5); format: biochemical; conditions: other: PhCGT1; substrate 2-hydroxynaringenin; 37.0 °C
Description: as §1
(§2) The Km value is the substrate concentration when the enzymatic reaction presents half of its maximum reaction rate, and the lower the Km value, the higher the enzymatic activity of the C-glycosyltransferase.

[3] = substrate: O=C1C[C@@](O)(c2ccc(O)cc2)Oc2cc(O)cc(O)c21; assay: in vitro kinetic parameters of C-glycosyltransferase PgCGT1 with 2-hydroxynaringenin (FIG. 5); format: biochemical, henon bamboo (Phyllostachys glauca); conditions: other: PgCGT1; substrate 2-hydroxynaringenin; 37.0 °C
Description: as §1, §2

Molecule	conversion of substrate phloretin to C-glycosylated product (Nothofagin) [1]	Km [2]	Km [3]	5′ C-glycosylation of 3′-glycosylated phloretin giving phloretin-3′,5′-C-diglucoside [1]
B1	can convert the substrate phloretin to a product having a shorter retention time	–	–	–
B2	can convert the substrate phloretin to a product having a shorter retention time	1.75 ± 0.66 µM	–	–
B3	can convert the substrate phloretin to a product having a shorter retention time	–	2.75 ± 0.75 µM	–
B4	can convert the substrate phloretin to a product having a shorter retention time	–	–	can catalyze the glycosylation of the 3′-glycosylated phloretin at the 5′ position
B5	can convert the substrate phloretin to a product having a shorter retention time	–	–	–
